These results are taken from the DeepSol protein solubility set.

The data set is described as follows: soluble on expression in E. coli; label from the status in PepcDB or PDB records.
For “MDDVLDRIMGSAPSQSGSSLNRTPKRDHRSNPDMHEPSSKRSAPMFTTPKSATPIGRDSFATLDTLNVQMNMFTMDIKDMPHKLQRLQVDVIICSSNGKQINVNLGVLAAKGDVNSHNRRLAQFFIMRAVHDKLPEKFSGKSHHFLAYDCAATLYVPEGVYTGDAEEQVTLKIDDFPKDEWKIVSKLSRRKDDSYLVTLKPAGFVHTQGEHARAEANRMELTRCVEIITSQMLNNEDYYQFANCPNREAVAVDEVVTAEASPEIHVEVTVAAVLIQEIIVEVTATEVERYRDESRGCRDMNDSRRDSSNGVDYSPSDAAEVEKALGERGSTKRFIEDALKGLDVECTRLKGNLIRVCSIAENNAENTSFMMKGDKGEQEITVVQYFQLQYNIKLKHSRLPLVVSKRFKHESFFPMELLQIAPGQRIKVNKMSPTVQSSMTGMNASMPEQHVKLVQNILIDNLKLKQSKYMDAFGIRLMSTKPLQLPAKLLPPAQIKFKNQTYMPEMSRPAFRTQDKFVQPAHIGRIGVVVFDNCIQMRQAESFCDNLAAICRDNGIKIDQDSRDWTICEINSSDAAGIQNRMRKWADDKVDILFAITREKKPDVHDILKYYEESIGLQTIQVCQQTVDKMMGGGGGRQTIDNVMRKFNLKCGGTNFFDEIPSSVRGRAVCSNSETLSKKLFEHVQFIGFEISHGAARTLFDRSRSQLDGEPSVVGVSYSLTNSTQLGGFTYLQTQKEYKLQKLGEVFPKCVQSYKEHSRRLPTRIVIYRVGAGEGDFKRVKEEIEEIRGTFDKIQPGYRPHLVVVIAQIASHARVFPSNITGRKAMEQNVPSGTCVDNVPTSYGYDEFILSSRTPLIGTVRPCKYTILINDANWSKNEIMHLTYFRAFGHQVSYKPPSVPDVLYAAENLAKRGRNNYKIHQRHVNLQAVENSIIGDHSELINEDMREELAAAIVDHMSVAMNGMTISKRNFWA”, the “soluble on expression in E. coli” value is “not soluble”.

Regarding “GSMAGGVDGPIGIPFPDHSSDILSGLNEQRTQGLLCDVVILVEGREFPTHRSVLAACSQYFKKLFTSGAVVDQQNVYEIDFVSAEALTALMDFAYTATLTVSTANVGDILSAARLLEIPAVSHVCADLLDRQI”, the “soluble on expression in E. coli” value was “soluble”.

Regarding “MEKIWPTGAQEETLMTQETNQNEVVVQNNAVAKTNTGSNYITAILEETKQGFVEANNGLDMDFVRMGEWLTVTKKGNFVEKDDENVSYGDNIDVVIGYGEQRWSVWGLEESPEAGQLIVAERTKEEAEIVLNQWLAENPQAQERYELDAIQLRYMASVVPVSTLRPDDFPRIYLMSFSPTDTIIFGRFAMNVYTGKYKALEIPSKLGVNRIVTRLVTAERKSRTNASNQWIGIDFQPVGVFKPEDYGINVEETEQAEKASE”, the “soluble on expression in E. coli” value was “not soluble”.

As to “MKKEKDLSVAVLIDGDNASSEKMEDVMRFVSRYGAAVVRRIYGDWTKKSLSGWKDAARDYSFRMVQASSFVPGKNTTDIALVMDAMDILHEGRVGCFCLVASDGDYTLLAQRIRESGLTVLGYGEGKTPAALVRSCTEFLLADRKEEKPFQENTPEFFIQRDMEYFDKAFEQAADGKAEVSLSLIGGVLKKLMPKFKVKRYGCRTLGKLYERLEKYELVKTGKGVAGLVRIKS”, the “soluble on expression in E. coli” value was “not soluble”.

Regarding “MGLYEKIVNKEEKISVIGLGYVGMPLAIAFAKYAQVIGFDVDKKKIEIYKSGIDPTKEIGNEAIKNTTVEFTSDETKLKEAKFHIVAVPTPINIDKTPDLTPVESASVIVGRNMARGSYVVYESTVYPGVTEDICIPILERESGLKCGVDFKVGYSPERINPGDKKHTLETIKKIVSAIDDESLDEIAKIYSLVIKAGVHKTSSIKVAEAAKVVENSQRDINIAFMNELAMVFDRMGIDTKEVIDAMNTKWNALGFYPGLVGGHCIGVDPYYFIYQAEKLGYHSQIILSGRKINDGMGEFIANTIIKKLIHVNKVVKKSKVVIFGITYKENCPDTRNSKVVDIIKGLNEYGIEPIVVDPQANREDTKQEYGIELMDIDDVKDADCLVFAVAHDEFKNMAWEQIEKFFKNIDNSEKVIIDVKGIFDKNKIEKLGYCYWRL”, the “soluble on expression in E. coli” value is “soluble”.

Turning to “MSLATMQDVATLAGVAPMTVSNCYRVPDKVHPQTLARVLEAAAKLGYTRNRIAGNLASGRSQVVGVLVPSLENSNFIGMIQGLEDRLHQLDHQLMLAVTPTADRELDSIRTFIERRIDGVVLTDVQHSRDTVDLLRNARLPTVETWSLKGPFIDMGVGFSLYDAAFDMTNLMIEAGYRRIGFAGFTPASTERFLERQRGFEDALRRANLRHDVHAYTEQSEGFAGGRITLNALLREEPELDGVFCGTDILAAGMIFECMRRGWRVPGRIGIAGYGNYQIASEITPKLTTVATPGYEMGVAAAEMLVGRLVGAAPAPVIRDVGYRLISGASEGHHHHHH”, the “soluble on expression in E. coli” value is reported as “not soluble”.

“MKLLKTKNCLYYRNGDNKLSEYQLLTQFNPAFINKKIKMCEFQIESMYHMSASTTTCDEIMGVVSVSYPIEKLVIKIIETKAGLQNYKNRSINNMALLKKVLNHYTEKEQKQVVKYMRSNGRYKPYNVIERLQVDLYQASIKQRSERQKQRNTAIENSKIARVNAYHQSSYVKVV”: the “soluble on expression in E. coli” value is recorded as “not soluble”.

As for “MKNKADNKKRNFLTHSEIESLLKAANTGPHAARNYCLTLLCFIHGFRASEICRLRISDIDLKAKCIYIHRLKKGFSTTHPLLNKEVQALKNWLSIRTSYPHAESEWVFLSRKGNPLSRQQFYHIISTSGGNAGLSLEIHPHMLRHSCGFALANMGIDTRLIQDYLGHRNIRHTVWYTASNAGRFYGIWDRARGRQRHAVL”, the “soluble on expression in E. coli” value is “soluble”.

On to “MPFKLSPDCIVLAEPEKLHYPGDTVSGHIVLKFEKFSTCRAITLTVKGKAETGWDNVTKVGQWTYFNESGVLWKAEMSENRIEPGTHRIPFDYTVPENIPQSFEGPFGFIRFYIKVHMDRPHALDQCVKKEFLVTQKPTVVSKKHLGPEHIIRYCQKLNCNRGEIYFEAQLSNRIIFFDDPISLIIKIKNCSSRTIKKISLEAFQRIEYYSTTSACRKTHSVLIGKTGKSELKIRNDEIAISTFSMKFKEPATPSFASELIQVSYVLLVNLFTDGFWAAPLVFPVEFEVGKKSDVGTEDEETCDGLINFDED”, for which the “soluble on expression in E. coli” value is given as “not soluble”.

Turning to “MAHHHHHHMLQRVLARLPGAPACISDPLHMRALLELIGYVEPGDNLNRVAYAGELHYPPQAHAFMAELLAEGRQRDGGDAFDAIRERRAGPGYAIDSATTSEVDDAIGVCVDGATGAKYFVVYVSDATVYCPFDSTLEQLTARRLTTTTYLPEGVFFMLPKPIVEAATLREDRPCRTFNVIFQIDESTGEVKNYSVAVGWLDQLRRITYDQVQEIVNKEEGKEEGDEHDSAAVVAAAHDTDASSSPPLLAGCADSAHPPPAWMTREDKDNLFYILRCARLRLRARLERQQRQQQQHHHGAGGKDCGDEGVPATPPVDFSLPDPLIEVKGTKVLSVTDQVISTQDARLAVAELMIAANEVCSRVAQANHIAMPFRGTRTLSSDHLVAHYYTEPEGVRTLMSLDASHIFLAEAMQSSVRRLSTVTRAIYHHVPLHHAGLDTTFYTHSTSPLRRYADMLVHHQLKTWLWQQRRGGGSSDHTSATSTSAARAAMVAAPQQLIPEHAMASLCTMISAKQERASLLQDNSTRFWILRYLEDLERASANAAAAARGDGDGDTHRKKTYLCLVGETRRVVAAPAYSRFACSSAEMSQLLSLPLTAPSTTSSTVRRPASLQMDAVARWRQETPEFTYVSDVYIPEVQLAHTITHHRDDVLVGAVLECHITRVQPTQGVLELAIERVLPGGDERHYERLWMGGFVSQLDA”, the “soluble on expression in E. coli” value was “not soluble”.

On to “MSFLVLPPEVNSALMFAGAGSGPTLAAAAAWDGLAAELGQAANSFSSATAALADTAWQGPAATAMAAAAAPYASWLSTAATRALSAAAQAKAAAAVYEAARAATVDPLLVAANRHQLVSLVLSNLFGQNAPAIAATEAAYEQLWAADVAAMVSYHSGASAVAAQLAPWAQAVRALPNPTAPALASGPAALAIPALGIGNTGIGNIFSIGNIGDYNLGNGNTGNANLGSGNTGQANLGSGNTGFFNFGSGNTANTNFGSGNLGNLNLGSGNDGNGNFGLGNIGDGNRGSGNVGSFNFGTANAGSFNVGSANHGSPNVGFANLGNNNLGIANLGNNNLGIANLGNNNIGIGLTGDNMIGIGALNSGIGNLGFGNSGNNNIGLFNSGNNNIGFFNSGDSNFGFFNSGDTNTGFGNAGFTNTGFGNAGSGNFGFGNAGNNNFGFGNSGFENMGVGNSGAYNTGSFNSGTLNTGDLNSGDFNTGWANSGDINTGGFHSGDLNTGFGSPVDQPVMNSGFGNIGTGNSGFNNSGDANSGFQNTNTGAFFIGHSGLLNSGGGQHVGISNSGTGFNTGLFNTGFNNTGIGNSATNAAFTTTSGVANSGDNSSGGFNAGNDQSGFFDG”, for which the “soluble on expression in E. coli” value was “not soluble”.

“MSKFPVPLRTIGGLRPSTTAAISAANIGFTQSSRALSTGAAAKSSGLVGQVARQYPNAAAFSIKQVRLYSSGNLPKHNRVALPALSPTMELGTVVSWQKKEGDQLSEGDLLCEIETDKATMGFETPEEGYLAKILIQEGSKDVPIGKLLCIIVDNEADVAAFKDFKDDGASSGGSAPAAEKAPEPAKPAASSQPSPPAQMYQAPSVPKSAPIPHSSSGRVSASPFAKKLAAENGLDLSGVSGSGPGGRILASDLSQAPAKGATSTTTQAVSGQDYTDIPLSNMRKTIAKRLTESKSTIPHYYLTSEIQLDTLLQVREKLNGLLAKGTSGQATKISINDFIIKASALACQRVPEANSYWMDSFIRENHHVDVSVAVSTPAGLITPIIFNAHAKGLATIASEIVELAQRAREGKLQPHEFQGGTFTVSNLGMFGSVSDFTAIINPPQSCILAIGGASDKLVPDEAEGYKKIKTMKVTLSCDHRTVDGAVGAVWLRHFKEFLEKPHTMLL”: the “soluble on expression in E. coli” value is “not soluble”.

As for “MIRLTRLDGDVFFVNPDLIEAIEETPDTHIVLSNGRRYLVIEKTDAIVARIISFKSSVMKRALGGHGRKYLRRKMEGSYLPRCPLKPGHNTDLEHHHHHH”, the “soluble on expression in E. coli” value is listed as “soluble”.

Turning to “MSLNKIIHHYEVFKDFYGMEEPIEQIVGFLKHAAQGLEETKQVLYLLGPVGGGKSSIAEKLKDLMERIPFYAIKGSPVFESPLSLFNPLEDGELLRERFGIPTRYLRYLMSPWAVKRLQEYNGDISKFRVIKVKPSRLKQIAIAKTEPGDENNQDISSLVGKVDIRKLEEFSQDDPDAYSYSGGLCRANRGLLEFVEMFKAPIKVLHPLLTATQEGNYNATEGLSAIPFEGIILAHSNESEWQSFRNNKNNEAFIDRINIVKVPYCLRVSEEIKIYQKLIHNSSLANAPCAPGTLDMLAQFSVLTRLKEPQNSSIYSKMRVYNGESLKDTDPKAKSYQEYRDFAGVDEGMSGISTRFAFKILSKVFNFDHTEVAANPVHLMYVLERQIEQEQFPQELHETYLNFIKEYLATKYVDFIGKEIQTAYLESYSEYGQNIFDRYITYADFWIQDQDYRDPDTGEIFDRALLNLELEKIEKPAGISNPKDFRNEVVNFVLRARANNRGKNPVWNSYEKLKSVIEKKMFTNTEDLLPVISFNAKASEEDKKKHEEFISRMVEKGYTRKQVRLLCEWYLRVRKSQEGHHHHHH”, the “soluble on expression in E. coli” value is “not soluble”.

For the sequence “MEKPGHETDIAGSRRTHLKKSFKSTLRHLLTACSKQVVVNLHQTIEEEFDEQCHETQVGPILDTVEELVEEQSLDPLFSDKTDVMAIAYDLTTSKKNEIQKLTVLLQRAEEQNRQKEARISMLKKQTQDLSGTADRIEKLNAGVSGYFEGKDKLPPI”, the “soluble on expression in E. coli” value is listed as “soluble”.

For “MAILIPASFGRLTITSRAQVRVRVSASANQRTIRRDSVDWVKETSSFFEEDKRPIMLFDGVCNLCNGGVKFVRDHDRNRSIRFEALQSEAGKKLLLRSGRAPDDISSVVLVENDRSYIKSEAVLKIMKYIDLPFPQLAFFLQFAPLFVRDFLYENVANNRYAMFGRSDSCEL”, the “soluble on expression in E. coli” value is listed as “soluble”.

In the case of “MMEKNNEVIQTHPLVGWDISTVDSYDALMLRLHYQTPNKSEQEGTEVGQTLWLTTDVARQFISILEAGIAKIESGDFPVNEYRRH”, the “soluble on expression in E. coli” value is listed as “not soluble”.
